The values below come from patent US20080044417A1 (MacroGenics, published 2008).

For assay [1], the target named is T1, FcγRIIB (CD32B) on Daudi cells (human, UniProt P31994 43-310).
T1 construct: whole, on cells; also called human B cell tumor line
T1 sequence (looked up): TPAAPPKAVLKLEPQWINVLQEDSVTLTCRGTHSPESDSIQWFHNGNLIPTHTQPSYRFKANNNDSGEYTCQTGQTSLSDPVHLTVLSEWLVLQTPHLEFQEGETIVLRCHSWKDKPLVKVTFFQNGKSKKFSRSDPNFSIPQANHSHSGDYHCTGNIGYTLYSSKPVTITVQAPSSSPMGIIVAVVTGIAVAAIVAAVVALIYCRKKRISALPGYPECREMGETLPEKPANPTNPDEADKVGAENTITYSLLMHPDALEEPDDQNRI
Nature of the assay: FACS on Daudi cells, primary antibody 0.5 µg/ml, PE anti-human IgG Fc secondary. How it is done: (§1) Protocol for FACS analysis. Approximately 10⁶ Daudi cells were used for each antibody staining. Cells were washed once with PBS. Primary antibodies (Ch2B6, Hu2B6Hc/ch2B6Lc, human IgG1) were diluted into 0.5, 0.1, 0.02 μg/mL in PBS/1% BSA and 100 μL of diluted antibodies was transferred to the cells. After 30 mins incubation at 4° C., cells were washed once with 1 mL PBS/1% BSA. PE conjugated F(ab′)₂ fragment of goat anti human IgG Fc specific (Jackson ImmunoReseach, Inc.) was used as secondary antibody at 1:1000 dilution. After 30 mins incubation at 4° C., cells were washed once with 1 mL PBS/1% BSA. The cells were then resuspended in 500 μL of PBS/1% BSA and subjected to be FACS analysis.
(§2) Transfections of HEK-293 cells were performed using the following combinations: hu2B6HC/hu2B6LC; hu2B6HC/hu2B6LC(N50Y); hu2B6HC/hu2B6LC(N50Y,V51A); ch2B6HC/ch2B6LC. After three days in culture the amount of human IgG expressed was quantitated by an ELISA assay, using the method described above. Binding to dimeric soluble FcγRIIb-Fc was determined by ELISA assay. […] FACS analysis was then performed to measure the binding of the mAbs to Daudi cells (Table 8).

The target of assay [2] is T1, FcγRIIB (CD32B) on Daudi cells. Nature of the assay: FACS on Daudi cells, primary antibody 0.5 ug/ml, PE anti-human IgG Fc secondary.
The target is the same in assay [3]. Kind of assay: FACS on Daudi cells, primary antibody 0.1 ug/ml, PE anti-human IgG Fc secondary.
Assay [4] shares this target. Nature of the assay: FACS on Daudi cells, primary antibody 0.02 µg/ml, PE anti-human IgG Fc secondary. On the procedure:
as §1, §2

Assay [5] has the same target. Kind of assay: FACS on Daudi cells, primary antibody 0.02 ug/ml, PE anti-human IgG Fc secondary.
Assay [6] has the same target. Kind of assay: FACS on Daudi cells, primary antibody 0.1 µg/ml, PE anti-human IgG Fc secondary. On the procedure:
as §1, §2

The target of the next assay is T2, soluble FcγIIA (UniProt P12318 34-217).
T2 construct: also called dimeric soluble FcγRIIa-Fc; FcγRIIA; not shown: the p
T2 sequence (looked up): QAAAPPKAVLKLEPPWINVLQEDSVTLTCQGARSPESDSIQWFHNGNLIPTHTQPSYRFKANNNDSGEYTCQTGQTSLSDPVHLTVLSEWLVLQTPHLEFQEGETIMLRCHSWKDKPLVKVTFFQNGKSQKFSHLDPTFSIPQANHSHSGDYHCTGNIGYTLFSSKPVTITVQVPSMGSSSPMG
Nature of the assay: ELISA, 100 ng/well soluble FcγIIA coated. How it is done:
Protocol for ELISA assay: 100 ng/well of soluble FcγIIA in carbonate buffer was coated on 96-well Maxisorp plates at 4° C. overnight. A serial of two-fold dilution of conditioned medium of Ch2B6; hu2B6HC/hu2B6LC; hu2B6HC/hu2B6LC(N50Y); hu2B6HC/hu2B6LC(N50Y,V51A); and purified IV.3 starting from 25 ng/well was added to the each well. The plate was incubated at room temperature for 1 hour. The binding was detected by HRP conjugated F(ab′)2 goat anti human IgG F(ab′)2 specific secondary antibody for Ch2B6 and all hu2B6 samples and HRP conjugated F(ab′)2 goat anti mouse IgG (H+L) secondary antibody for IV.3. After incubation with the secondary antibody for approximately 45 minutes, the plate was developed using a TMB substrate. After 5 mins incubation, the reaction was stopped by 1% H₂SO₄. The OD₄₅₀ nm was ready by SOFTmax program. Between each step, the plates were washed 3 times with PBS/0.1% Tween 20. The plates were blocked by 0.5% BSA in PBS/0.1% Tween 20 for 30 mins at room temperature before adding the serial diluted antibodies.
For orientation: ELISA stands for enzyme-linked immunosorbent assay.

Substitutions are numbered along the chain they refer to. Numbers in names are those of the source.

For the molecule Human IgG1 (antibody), the Mean Fluorescence in assay [1] was 9.49; in assay [1] (record 2), 1.23; in assay [2] it was 6.07.
With “ch2B6 monoclonal antibody (ch2B6HC/ch2B6LC)”, the Mean Fluorescence was found to be 193 in assay [1]; 647 in assay [1] (record 2); 515 in assay [3]; 45.6 in assay [4]; 173 in assay [4] (record 2); 168 in assay [5]. The Mean Fluorescence is 141 in assay [6], 512 in assay [6] (record 2) and 552 in assay [2].

B1: hu2B6HC/hu2B6LC(N50Y) (antibody, V domains shown)
VH: QVQLVQSGAEVKKPGASVKVSCKASGYTFTNYWIHWVRQAPGQGLEWMGVIDPSDTYPNYNKKFKGRVTMTTDTSTSTAYMELRSLRSDDTAVYYCARNGDSDYYSGMDYWGQGTTVTVSS
VL: EIVLTQSPDFQSVTPKEKVTITCRTSQSIGTNIHWYQQKPDQSPKLLIKYVSESISGVPSRFSGSGSGTDFTLTINSLEAEDAATYYCQQSNTWPFTFGGGTKVEIK
notes: Human IgG; HEK-293 conditioned medium; also called Hu2B6 N50Y; Hu2B6N50Y
As for B1, the “Mean Fluorescence” value in assay [1] was 191; in assay [4] it was 40.1; in assay [6], 135. Further, the binding result in the assay with soluble FcγIIA is “no binding”.

B2: hu2B6HC/hu2B6LC(N50Y,V51A) (antibody, V domains shown)
VH: B1 VH
VL: B1 VL with V51A
notes: Human IgG; HEK-293 conditioned medium; also called Hu2B6N50Y, V51A; Hu2B6N50Y,V51A
In the case of B2, the “Mean Fluorescence” value in assay [1] was 167; in assay [4], 46; in assay [6], 134. In the assay with soluble FcγIIA, the binding result is reported as “no binding”.

B3: hu2B6HC/hu2B6LC monoclonal antibody (antibody, V domains shown)
VH: B1 VH
VL: B1 VL with Y50N
notes: Human IgG (appropriate constant region segments); HEK-293 conditioned medium; also called humanized 2B6
Turning to B3, the “Mean Fluorescence” value was 202 in assay [1], 58.6 in assay [4] and 174 in assay [6]. Besides, the binding result with soluble FcγIIA is listed as “no binding”.
